{"source": "patent US7413870B2", "about": "“SAK: modulation of cellular proliferation for treatment of cancer” (Rigel Pharmaceuticals, Incorporated, priority 2001, dated 2008)", "key": {"normal cells": {"system": "normal cells", "experiment": "antiproliferative effect of SAK wild type/mutants in normal cells (GFP positivity, cell tracker)", "type": "cell-based"}, "H1299 cells": {"system": "H1299 cells", "experiment": "antiproliferative effect of SAK mutant in H1299 cells", "type": "cell-based"}, "CHO cells": {"system": "CHO cells", "conditions": "overexpression in CHO cells; cited from earlier work"}}, "note": "Like-named read-outs stand apart in the source and are kept apart here.", "data": [{"molecule": "SAK wild type: wild type human SAK serine/threonine kinase (SEQ ID NO:2), overexpressed in cells (protein, UniProt O00444 1-970, looked up) Serine/threonine-protein …: MATCIGEKIEDFKVGNLLGKGSFAGVYRAESIHTGLEVAIKMIDKKAMYKAGMVQRVQNEVKIHCQLKHPSILELYNYFEDSNYVYLVLEMCHNGEMNRYLKNRVKPFSENEARHFMHQIITGMLYLHSHGILHRDLTLSNLLLTRNMNIKIADFGLATQLKMPHEKHYTLCGTPNYISPEIATRSAHGLESDVWSLGCMFYTLLIGRPPFDTDTVKNTLNKVVLADYEMPSFLSIEAKDLIHQLLRRNPADRLSLSSVLDHPFMSRNSSTKSKDLGTVEDSIDSGHATISTAITASSSTSISGSLFDKRRLLIGQPLPNKMTVFPKNKSSTDFSSSGDGNSFYTQWGNQETSNSGRGRVIQDAEERPHSRYLRRAYSSDRSGTSNSQSQAKTYTMERCHSAEMLSVSKRSGGGENEERYSPTDNNANIFNFFKEKTSSSSGSFERPDNNQALSNHLCPGKTPFPFADPTPQTETVQQWFGNLQINAHLRKTTEYDSISPNRDFQGHPDLQKDTSKNAWTDTKVKKNSDASDNAHSVKQQNTMKYMTALHSKPEIIQQECVFGSDPLSEQSKTRGMEPPWGYQNRTLRSITSPLVAHRLKPIRQKTKKAVVSILDSEEVCVELVKEYASQEYVKEVLQISSDGNTITIYYPNGGRGFPLADRPPSPTDNISRYSFDNLPEKYWRKYQYASRFVQLVRSKSPKITYFTRYAKCILMENSPGADFEVWFYDGVKIHKTEDFIQVIEKTGKSYTLKSESEVNSLKEEIKMYMDHANEGHRICLALESIISEEERKTRSAPFFPIIIGRKPGSTSSPKALSPPPSVDSNYPTRERASFNRMVMHSAASPTQAPILNPSMVTNEGLGLTTTASGTDISSNSLKDCLPKSAQLLKSVFVKNVGWATQLTSGAVWVQFNDGSQLVVQAGVSSISYTSPNGQTTRYGENEKLPDYIKQKLQCLSSILLMFSNPTPNFH", "values": [{"measurement": "antiproliferative activity", "setting": "normal cells", "value": "do not have significant antiproliferative activity"}, {"measurement": "antiproliferative effect", "setting": "normal cells; GFP positivity studies", "value": "no antiproliferative effect"}, {"measurement": "antiproliferative activity", "setting": "normal cells; listed as wild type SAK", "value": "neither wild type nor mutant SAK is antiproliferative"}]}, {"molecule": "SAK K41M mutant: mutant SAK (K41M) serine/threonine kinase, overexpressed in cells in dominant negative studies (protein, UniProt O00444 1-970, looked up, variant K41M) Serine/threonine-protein …: MATCIGEKIEDFKVGNLLGKGSFAGVYRAESIHTGLEVAIMMIDKKAMYKAGMVQRVQNEVKIHCQLKHPSILELYNYFEDSNYVYLVLEMCHNGEMNRYLKNRVKPFSENEARHFMHQIITGMLYLHSHGILHRDLTLSNLLLTRNMNIKIADFGLATQLKMPHEKHYTLCGTPNYISPEIATRSAHGLESDVWSLGCMFYTLLIGRPPFDTDTVKNTLNKVVLADYEMPSFLSIEAKDLIHQLLRRNPADRLSLSSVLDHPFMSRNSSTKSKDLGTVEDSIDSGHATISTAITASSSTSISGSLFDKRRLLIGQPLPNKMTVFPKNKSSTDFSSSGDGNSFYTQWGNQETSNSGRGRVIQDAEERPHSRYLRRAYSSDRSGTSNSQSQAKTYTMERCHSAEMLSVSKRSGGGENEERYSPTDNNANIFNFFKEKTSSSSGSFERPDNNQALSNHLCPGKTPFPFADPTPQTETVQQWFGNLQINAHLRKTTEYDSISPNRDFQGHPDLQKDTSKNAWTDTKVKKNSDASDNAHSVKQQNTMKYMTALHSKPEIIQQECVFGSDPLSEQSKTRGMEPPWGYQNRTLRSITSPLVAHRLKPIRQKTKKAVVSILDSEEVCVELVKEYASQEYVKEVLQISSDGNTITIYYPNGGRGFPLADRPPSPTDNISRYSFDNLPEKYWRKYQYASRFVQLVRSKSPKITYFTRYAKCILMENSPGADFEVWFYDGVKIHKTEDFIQVIEKTGKSYTLKSESEVNSLKEEIKMYMDHANEGHRICLALESIISEEERKTRSAPFFPIIIGRKPGSTSSPKALSPPPSVDSNYPTRERASFNRMVMHSAASPTQAPILNPSMVTNEGLGLTTTASGTDISSNSLKDCLPKSAQLLKSVFVKNVGWATQLTSGAVWVQFNDGSQLVVQAGVSSISYTSPNGQTTRYGENEKLPDYIKQKLQCLSSILLMFSNPTPNFH", "values": [{"measurement": "antiproliferative effect", "setting": "H1299 cells", "value": "weak antiproliferative effect"}, {"measurement": "antiproliferative activity", "setting": "normal cells", "value": "does not have strong antiproliferative effects"}]}, {"molecule": "wild type mouse SAK: wild type mouse SAK overexpressed in CHO cells, from cited U.S. patents (protein, UniProt Q64702 1-925, looked up) Serine/threonine-protein …: MAACIGERIEDFKVGNLLGKGSFAGVYRAESIHTGLEVAIKMIDKKAMYKAGMVQRVQNEVKIHCQLKHPSVLELYNYFEDNNYVYLVLEMCHNGEMNRYLKNRMKPFSEREARHFMHQIITGMLYLHSHGILHRDLTLSNILLTRNMNIKIADFGLATQLNMPHEKHYTLCGTPNYISPEIATRSAHGLESDIWSLGCMFYTLLIGRPPFDTDTVKNTLNKVVLADYEMPAFLSREAQDLIHQLLRRNPADRLSLSSVLDHPFMSRNPSPKSKDVGTVEDSMDSGHATLSTTITASSGTSLSGSLLDRRLLVGQPLPNKITVFQKNKNSSDFSSGDGSNFCTQWGNPEQEANSRGRGRVIEDAEERPHSRYLRRAHSSDRASPSNQSRAKTYSVERCHSVEMLSKPRRSLDENQHSSNHHCLGKTPFPFADQTPQMEMVQQWFGNLQMNAHLGETNEHHTVSPNRDFQDYPDLQDTLRNAWTDTRASKNADTSANVHAVKQLSAMKYMSAHHHKPEVMPQEPGLHPHSEQSKNRSMESTLGYQKPTLRSITSPLIAHRLKPIRQKTKKAVVSILDSEEVCVELLRECASEGYVKEVLQISSDGTMITVYYPNDGRGFPLADRPPLPTDNISRYSFDNLPEKYWRKYQYASRFIQLVRSKTPKITYFTRYAKCILMENSPGADFEVWFYDGAKIHKTENLIHIIEKTGISYNLKNENEVTSLKEEVKVYMDHANEGHRICLSLESVISEEEKRSRGSSFFPIIVGRKPGNTSSPKALSAPPVDPSCCKGEQASASRLSVNSAAFPTQSPGLSPSTVTVEGLGHTATATGTGVSSSLPKSAQLLKSVFVKNVGWATQLTSGAVWVQFNDGSQLVVQAGVSSISYTSPDGQTTRYGENEKLPEYIKQKLQCLSSILLMFSNPTPNFQ", "values": [{"measurement": "antiproliferative effect", "setting": "CHO cells", "value": "antiproliferative"}]}]}
